Data on 4 molecules can be found in article PMC6166240.

Where two headings read alike, the source gives them in different places.

Assay in all cases: X-ray crystallography
For data set [1], the target named is T1, AbdB homeodomain with W motif (crystal construct);Exd homeodomain (crystal construct) (Drosophila;Drosophila, UniProt P09087-2;P40427 ;, |).
Data set [2] has as its target AbdB homeodomain with W motif (crystal construct) (Drosophila, UniProt P09087-2).
Data set [3] has as its target T1, AbdB homeodomain with W motif (crystal …). This is another data set of the same source.
For data set [4] the target is unchanged. This is another data set of the same source.
For data set [5] the target is unchanged. This is another data set of the same source.

T1 sequence (P09087 369-452, chain 1 of 2): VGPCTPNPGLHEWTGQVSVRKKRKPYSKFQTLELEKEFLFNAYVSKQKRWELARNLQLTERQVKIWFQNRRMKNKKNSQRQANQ
T1 sequence (P40427 237-310, chain 2 of 2): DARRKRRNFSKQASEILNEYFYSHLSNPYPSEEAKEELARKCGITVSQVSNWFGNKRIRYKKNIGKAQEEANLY
AbdB homeodomain with W motif (crystal construct), sequence (P09087 369-452): as the sequence (P09087 369-452, chain 1 of 2) above

B1: black (crystal) (dsDNA)
DNA 1: GCATGATAAATGAC
DNA 2: GTCATTTATCATGC
With B1, the binding result in data set [1] and in data set [2] was “binds” throughout.

B2: blue (crystal) (dsDNA)
DNA 1: GCATGATTAATGAC
DNA 2: GTCATTAATCATGC
As to B2, the binding result in data set [3] is on record as “binds”.

B3: magenta (crystal) (dsDNA)
DNA 1: GCATGATTACGAC
DNA 2: GTCGTAATCATGC
Take B3: the binding result in data set [4] was “binds”.

B4: red (crystal) (dsDNA)
DNA 1: GCATGATTTATGAC
DNA 2: GTCATAAATCATGC
For B4, in data set [5], the binding result is on record as “binds”.
